According to patent US20180155451A1 (published 2018):

T1: FcγRIIb (human, UniProt P31994 43-217)
T1 construct: extracellular domain; also called FcgRIIb; 2b
T1 sequence (looked up): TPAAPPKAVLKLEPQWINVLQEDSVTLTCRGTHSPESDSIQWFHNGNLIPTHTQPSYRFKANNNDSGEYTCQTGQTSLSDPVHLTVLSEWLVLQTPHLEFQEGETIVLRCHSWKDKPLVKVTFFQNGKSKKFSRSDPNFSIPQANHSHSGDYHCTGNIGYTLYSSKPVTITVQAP

B1: GpH7-A5/GpH7-B3 variant Q295_10E/GpL16-k0 (antibody, human IgG1, kappa)
heavy 1: not shown
heavy 2: not shown
light: DIVMTQSPLSLPVTPGEPASISCQASESLVHSNRNTYLHWYLQKPGQSPQLLIYKVSNRFSGVPDRFSGSGSGTDFTLKISRVEAEDVGVYYCSQNTHVPPTFGQGTKVEIERTVAAPSVFIFPPSDEQLKSGTASVVCLLNNFYPREAKVQWKVDNALQSGNSQESVTEQDSKDSTYSLSSTLTLSKADYEKHKVYACEVTHQGLSSPVTKSFNRGEC
notes: heterodimerized IgG1, mutation in one H chain only; also called He Ab
B2: GpH7-A5/GpH7-B3 variant K334_02A/GpL16-k0 (antibody, human IgG1, kappa)
heavy 1: not shown
heavy 2: not shown
light: B1 light
notes: as for B1
B3: GpH7-A5/GpH7-B3 variant K334_09D/GpL16-k0 (antibody, human IgG1, kappa)
heavy 1: not shown
heavy 2: not shown
light: B1 light
notes: as for B1
B4: GpH7-A5/GpH7-B3 variant K334_10E/GpL16-k0 (antibody, human IgG1, kappa)
heavy 1: not shown
heavy 2: not shown
light: B1 light
notes: as for B1
B5: GpH7-A5/GpH7-B3 variant K326_08L/GpL16-k0 (antibody, human IgG1, kappa)
heavy 1: not shown
heavy 2: not shown
light: B1 light
notes: as for B1
B6: GpH7-A5/GpH7-B3 variant K334_07I/GpL16-k0 (antibody, human IgG1, kappa)
heavy 1: not shown
heavy 2: not shown
light: B1 light
notes: as for B1
B7: GpH7-A5/GpH7-B3 variant K326_10E/GpL16-k0 (antibody, human IgG1, kappa)
heavy 1: not shown
heavy 2: not shown
light: B1 light
notes: as for B1
B8: GpH7-A5/GpH7-B3 variant K334_05P/GpL16-k0 (antibody, human IgG1, kappa)
heavy 1: not shown
heavy 2: not shown
light: B1 light
notes: as for B1
B9: GpH7-A5/GpH7-B3 variant K326_14T/GpL16-k0 (antibody, human IgG1, kappa)
heavy 1: not shown
heavy 2: not shown
light: B1 light
notes: as for B1
B10: GpH7-A5/GpH7-B3 variant S267_09D/GpL16-k0 (antibody, human IgG1, kappa)
heavy 1: not shown
heavy 2: not shown
light: B1 light
notes: as for B1
B11: GpH7-A5/GpH7-B3 variant K326_19Q/GpL16-k0 (antibody, human IgG1, kappa)
heavy 1: not shown
heavy 2: not shown
light: B1 light
notes: as for B1
B12: GpH7-A5/GpH7-B3 variant T335_10E/GpL16-k0 (antibody, human IgG1, kappa)
heavy 1: not shown
heavy 2: not shown
light: B1 light
notes: as for B1
B13: GpH7-A5/GpH7-B3 variant Q295_14T/GpL16-k0 (antibody, human IgG1, kappa)
heavy 1: not shown
heavy 2: not shown
light: B1 light
notes: as for B1
B14: GpH7-A5/GpH7-B3 variant K334_15Y/GpL16-k0 (antibody, human IgG1, kappa)
heavy 1: not shown
heavy 2: not shown
light: B1 light
notes: as for B1
B15: GpH7-A5/GpH7-B3 variant S298_14T/GpL16-k0 (antibody, human IgG1, kappa)
heavy 1: not shown
heavy 2: not shown
light: B1 light
notes: as for B1
B16: GpH7-A5/GpH7-B3 variant K334_03V/GpL16-k0 (antibody, human IgG1, kappa)
heavy 1: not shown
heavy 2: not shown
light: B1 light
notes: as for B1
B17: GpH7-A5/GpH7-B3 variant K334_08L/GpL16-k0 (antibody, human IgG1, kappa)
heavy 1: not shown
heavy 2: not shown
light: B1 light
notes: as for B1
B18: GpH7-A5/GpH7-B3 variant T335_07I/GpL16-k0 (antibody, human IgG1, kappa)
heavy 1: not shown
heavy 2: not shown
light: B1 light
notes: as for B1
B19: GpH7-A5/GpH7-B3 variant K334_16H/GpL16-k0 (antibody, human IgG1, kappa)
heavy 1: not shown
heavy 2: not shown
light: B1 light
notes: as for B1
B20: GpH7-A5/GpH7-B3 variant D265_15Y/GpL16-k0 (antibody, human IgG1, kappa)
heavy 1: not shown
heavy 2: not shown
light: B1 light
notes: heterodimerized antibody, mutation in the GpH7-B3 chain only; also called He Ab
B21: GpH7-A5/GpH7-B3 variant D265_20W/GpL16-k0 (antibody, human IgG1, kappa)
heavy 1: not shown
heavy 2: not shown
light: B1 light
notes: as for B20
B22: GpH7-A5/GpH7-B3 variant V266_12R/GpL16-k0 (antibody, human IgG1, kappa)
heavy 1: not shown
heavy 2: not shown
light: B1 light
notes: as for B20

What follows are binders tested against T2, FcγRIIIa extracellular domain with C-terminal His tag (human, UniProt P08637 17-208) (assay: SPR, relative to GpH7-A5/GpH7-B3/GpL16-k0).
T2 construct: extracellular domain; also called FcgRIIIa; 3a
T2 sequence (P08637 17-208): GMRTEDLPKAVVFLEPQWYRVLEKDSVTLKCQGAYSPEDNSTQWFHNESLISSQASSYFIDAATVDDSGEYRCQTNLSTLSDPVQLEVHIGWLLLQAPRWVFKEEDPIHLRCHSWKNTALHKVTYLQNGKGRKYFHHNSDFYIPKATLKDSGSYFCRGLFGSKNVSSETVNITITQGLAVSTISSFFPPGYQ

He/Con_3a | Binder
100 % of control (=100) | B1
147 % of control (=100) | B2
160 % of control (=100) | B3
181 % of control (=100) | B4
114 % of control (=100) | B5
151 % of control (=100) | B6
124 % of control (=100) | B7
134 % of control (=100) | B8
126 % of control (=100) | B9
181 % of control (=100) | B10
106 % of control (=100) | B11
107 % of control (=100) | B12
115 % of control (=100) | B13
141 % of control (=100) | B14
113 % of control (=100) | B15
150 % of control (=100) | B16
143 % of control (=100) | B17
107 % of control (=100) | B18
134 % of control (=100) | B19

These binders were tested against T1, FcγRIIb (assay: SPR (Biacore), antibody captured, FcγR as analyte; relative binding).
Experimental: The heterodimerized antibodies He Abs in which one of the H chains was introduced with an alteration were assayed for their binding activities to each activating FcγR and inhibitory FcγR according to the method described in Example 4. […] The activating FcγRs in FIGS. 26, 27, 28, and 29 are FcγRIa, FcγRIIa (R), FcγRIIa (H), and FcγRIIIa, respectively.
Analysis of interaction between objective antibody and the FcγR was carried out using Biacore T100 (GE Healthcare). HBS-EP+ (GE Healthcare) was used as the running buffer, and the measurement temperature was set to 25° C. Chips produced by immobilizing the antigen peptide by the amine coupling method to a Series S Sencor Chip CM5 (GE Healthcare), or alternatively, chips produced by allowing preliminarily biotinylated antigen peptides to interact with and immobilize onto a Series S Sensor Chip SA (certified) (GE Healthcare) were used. Antibodies of interest were captured onto an antigen peptide-immobilized chip, and allowed to interact to each FcγR diluted with running buffer. To regenerate and repeatedly use the chip, the antibodies captured on the chip were washed off by reacting 10 mM glycine-HCl, pH 1.5.

He/Con_2b (IIb binding) | Binder
0.6 % of GpH7-A5/GpH7-B3/GpL16-k0 (=100) | B20
1.1 % of GpH7-A5/GpH7-B3/GpL16-k0 (=100) | B21
-1.1 % of GpH7-A5/GpH7-B3/GpL16-k0 (=100) | B22
